Test results taken from US20230355784A1.
Square brackets hold non-standard residues; d marks the D form. Ends that are not written are not given here.

biological target: mAB anti V5 (Thermo Scientific) (mouse); assay: 1 ug/ml mouse anti V5 with increasing SADC, capture on streptavidin plate, bound IgG by ELISA

| EC50 [µg/mL] | Binder |
| --- | --- |
| 0.0279 | IPNPLLGLDGGSGDYKDDDDKGK[BiotinAca]GC (peptide, part only; not given: albumin scaffold, not shown: large carriers, also: bound to albumin scaffold) [SADC with albumin scaffold carrying the tagged V5 peptide] |
| 0.007 | IPNPLLGLDGGSGDYKDDDDKGK[BiotinAca]GC (peptide, part only; not given: transferrin scaffold, not shown: large carriers, also: bound to transferrin scaffold) [SADC with transferrin scaffold carrying the tagged V5 peptide] |
| 0.0555 | IPNPLLGLDGGSGDYKDDDDKGK[BiotinAca]GC (peptide, part only; not given: haptoglobin scaffold, part only, also: bound to haptoglobin scaffold) [SADC with haptoglobin scaffold carrying the tagged V5 peptide] |
